US20090035321A1, “Intercellular adhesion molecules and their binding ligands” (Boehringer Ingelheim Pharmaceuticals, Inc., published 2009)

What was measured:
Test in all cases: 35S-HRV14 on COS cells
ICAM-1 N103/K = ICAM-1 N103/K (human, UniProt P05362)
Protocol: (§1) COS cells were seeded into 10 cm tissue culture plates such that they would be 50% confluent by 16-24 hrs. COS cells were then washed once with TBS and incubated for 4 hrs with 4 ml RPMI containing 10% Nu sera (Collaborative) 5 pg/ml chloroquine, 3 μg of mutant plasmid and 200 μg/ml DEAE-dextran sulfate. Cells were then washed with 10% DMSO/PBS followed by PBS and cultured 16 hrs in culture media. Culture media was replaced with fresh media and at 48 hrs post transfection (OS cells were suspended by trypsin/EDTA (Gibco) treatment and divided into 2, 10 cm plates as well as 24 well tissue culture plates for HRV binding. At 72 hrs cells were harvested from 10 cm plates with 5 mM EDTA/HBSS and processed for adhesion to LFA-1 coated plastic and immunofluorescence.
(§2) Binding occurred in 1 hr at 35° C. in a 5% CO₂ atmosphere with horizontal rotation (100 rpm). Unbound [³⁵S] HRV14 was aspirated, COS cells were gently washed with 150 ml of HRV buffer and then solubilized with 1% SDS in PBS for scintillation counting.
(§3) In Table 25, the notation for the mutations uses the one-letter code for the wild-type sequence followed by a slash and the one-letter code for the corresponding mutant sequence. The position of the first amino acid within the sequence is indicated. Wild type residues precede the slash followed by the residues they were substituted for in the mutant. COS cells expressing ICAM-1 mutants were tested for adherence to LFA-1 coated plastic and for binding 35S met-labeled HRV14. […] Binding is presented as mean and standard error (SE) for multiple experiments (n). […] The specific linear fluorescence intensity (SLFI) of CL203 for each mutant is normalized to that of wild type CL203 SLFI (% WT) as discussed above. The SLFI of RR1/1, R6.5 and LB-2 SLFI is normalized to the CL203 SLFI of the mutant (% CL203) as described above.

ICAM-1 Q1T/KA = ICAM-1 Q1T/KA (human, UniProt P05362)
Protocol: as §1, §2, §3

ICAM-1 R49KV/EKL = ICAM-1 R49KV/EKL (human, UniProt P05362)
Protocol: as §1, §2, §3

ICAM-1 Q58/H = ICAM-1 Q58/H (human, UniProt P05362)
Protocol: as §1, §2, §3

ICAM-1 Q1/K = ICAM-1 Q1/K (human, UniProt P05362)
Protocol: as §1, §2, §3

ICAM-1 K40/A = ICAM-1 K40/A (human, UniProt P05362)
Protocol: as §1, §2, §3

ICAM-1 V136GE/GVK = ICAM-1 V136GE/GVK (human, UniProt P05362)
Protocol: as §1, §2, §3

ICAM-1 N118/Q = ICAM-1 N118/Q (human, UniProt P05362)
Protocol: as §1, §2, §3

ICAM-1 N175/A = ICAM-1 N175/A (human, UniProt P05362)
Protocol: as §1, §2, §3

ICAM-1 E111GGA/KAGS = ICAM-1 E111GGA/KAGS (human, UniProt P05362)
Protocol: as §1, §2, §3

ICAM-1 E59/Q = ICAM-1 E59/Q (human, UniProt P05362)
Protocol: as §1, §2, §3

ICAM-1 D26QPK/ALPE = ICAM-1 D26QPK/ALPE (human, UniProt P05362)
Protocol: as §1, §2, §3

ICAM-1 R13/K = ICAM-1 R13/K (human, UniProt P05362)
Protocol: as §1, §2, §3

ICAM-1 D203TQ/TAD = ICAM-1 D203TQ/TAD (human, UniProt P05362)
Protocol: as §1, §2, §3

ICAM-1 E127/R = ICAM-1 E127/R (human, UniProt P05362)
Protocol: as §1, §2, §3

ICAM-1 R125/E = ICAM-1 R125/E (human, UniProt P05362)
Protocol: as §1, §2, §3

ICAM-1 D71/N = ICAM-1 D71/N (human, UniProt P05362)
Protocol: as §1, §2, §3

ICAM-1 S177/G = ICAM-1 S177/G (human, UniProt P05362)
Protocol: as §1, §2, §3

ICAM-1 R149RD/EEG = ICAM-1 R149RD/EEG (human, UniProt P05362)
Protocol: as §1, §2, §3

ICAM-1 K39KE/ERQ = ICAM-1 K39KE/ERQ (human, UniProt P05362)
Protocol: as §1, §2, §3

ICAM-1 R166PQ/EPA = ICAM-1 R166PQ/EPA (human, UniProt P05362)
Protocol: as §1, §2, §3

ICAM-1 G46NN/ASI = ICAM-1 G46NN/ASI (human, UniProt P05362)
Protocol: as §1, §2, §3

ICAM-1 E254DE/KEK = ICAM-1 E254DE/KEK (human, UniProt P05362)
Protocol: as §1, §2, §3

ICAM-1 D213GL/HGV = ICAM-1 D213GL/HGV (human, UniProt P05362)
Protocol: as §1, §2, §3

ICAM-1 N156/E = ICAM-1 N156/E (human, UniProt P05362)
Protocol: as §1, §2, §3

ICAM-1 Q58EDS/AKDI = ICAM-1 Q58EDS/AKDI (human, UniProt P05362)
Protocol: as §1, §2, §3

ICAM-1 N48/H = ICAM-1 N48/H (human, UniProt P05362)
Protocol: as §1, §2, §3

ICAM-1 N240DS/KNA = ICAM-1 N240DS/KNA (human, UniProt P05362)
Protocol: as §1, §2, §3

ICAM-1 R13/Q = ICAM-1 R13/Q (human, UniProt P05362)
Protocol: as §1, §2, §3

B1: human rhinovirus 14 (HRV14) (other)
chain: GAQVSTQKSGSHENQNILTNGSNQTFTVINYYKDAASTSSAGQSLSMDPSKFTEPVKDLMLKGAPALNSPNVEACGYSDRVQQITLGNSTITTQEAANAVVCYAEWPEYLPDVDASDVNKTSKPDTSVCRFYTLDSKTWTTGSKGWCWKLPDALKDMGVFGQNMFFHSLGRSGYTVHVQCNATKFHSGCLLVVVIPEHQLASHEGGNVSVKYTFTHPGERGIDLSSANEVGGPVKDVIYNMNGTLLGNLLIFPHQFINLRTNNTATIVIPYINSVPIDSMTRHNNVSLMVIPIAPLTVPTGATPSLPITVTIAPMCTEFSGIRSKSIVPQGLPTTTLPGSGQFLTTDDRQSPSALPNYEPTPRIHIPGKVHNLLEIIQVDTLIPMNNTHTKDEVNSYLIPLNANRQNEQVFGTNLFIGDGVFKTTLLGEIVQYYTHWSGSLRFSLMYTGPALSSAKLILAYTPPGARGPQDRREAMLGTHVVWDIGLQSTIVMTIPWTSGVQFRYTDPDTYTSAGFLSCWYQTSLILPPETTGQVYLLSFISACPDFKLRLMKDTQTISQTVALTEGLGDELEEVIVEKTKQTVASISSGPKHTQKVPILTANETGATMPVLPSDSIETRTTYMHFNGSETDVECFLGRAACVHVTEIQNKDATGIDNHREAKLFNDWKINLSSLVQLRKKLELFTYVRFDSEYTILATASQPDSANYSSNLVVQAMYVPPGAPNPKEWDDYTWQSASNPSVFFKVGDTSRFSVPYVGLASAYNCFYDGYSHDDAETQYGITVLNHMGSMAFRIVNEHDEHKTLVKIRVYHRAKHVEAWIPRAPRALPYTSIGRTNYPKNTEPVIKKRKGDIKSY
modifications: [35S]-Met labeled
How did the “HRV Binding %” value (ICAM-1 N103/K) turn out when B1 was run?
The value was 13 % of wild type.

What about the “HRV Binding %” value (ICAM-1 Q1T/KA) of the same binder?
The value was 11 % of wild type.

What about the “HRV Binding %” value (ICAM-1 R49KV/EKL) of the same binder?
The value was 49 % of wild type.

What about the “HRV Binding %” value (ICAM-1 Q58/H) of the same binder?
Its value is 1 % of wild type.

And the “HRV Binding %” value (ICAM-1 Q1/K)?
Its value is 78 % of wild type.

What about the “HRV Binding %” value (ICAM-1 K40/A) of the same binder?
Its value is 89 % of wild type.

What about the “HRV Binding %” value (ICAM-1 V136GE/GVK) of the same binder?
Its value is 117 % of wild type.

What about the “HRV Binding %” value (ICAM-1 N118/Q) of the same binder?
Its value is 110 % of wild type.

What about the “HRV Binding %” value (ICAM-1 N175/A) of the same binder?
The value was 129 % of wild type.

What about the “HRV Binding %” value (ICAM-1 E111GGA/KAGS) of the same binder?
Its value is 162 % of wild type.

And the “HRV Binding %” value (ICAM-1 E59/Q)?
Its value is 92 % of wild type.

What about the “HRV Binding %” value (ICAM-1 D26QPK/ALPE) of the same binder?
The value was 13 % of wild type.

And the “HRV Binding %” value (ICAM-1 R13/K)?
Its value is 123 % of wild type.

And the “HRV Binding %” value (ICAM-1 D203TQ/TAD)?
The value was 111 % of wild type.

And the “HRV Binding %” value (ICAM-1 E127/R)?
Its value is 131 % of wild type.

What about the “HRV Binding %” value (ICAM-1 R125/E) of the same binder?
The value was 157 % of wild type.

And the “HRV Binding %” value (ICAM-1 D71/N)?
The value was 62 % of wild type.

And the “HRV Binding %” value (ICAM-1 S177/G)?
The value was 66 % of wild type.

And the “HRV Binding %” value (ICAM-1 R149RD/EEG)?
Its value is 139 % of wild type.

What about the “HRV Binding %” value (ICAM-1 K39KE/ERQ) of the same binder?
Its value is 61 % of wild type.

And the “HRV Binding %” value (ICAM-1 R166PQ/EPA)?
Its value is 25 % of wild type.

And the “HRV Binding %” value (ICAM-1 G46NN/ASI)?
Its value is 9 % of wild type.

What about the “HRV Binding %” value (ICAM-1 E254DE/KEK) of the same binder?
The value was 99 % of wild type.

And the “HRV Binding %” value (ICAM-1 D213GL/HGV)?
Its value is 99 % of wild type.

What about the “HRV Binding %” value (ICAM-1 N156/E) of the same binder?
The value was 107 % of wild type.

What about the “HRV Binding %” value (ICAM-1 Q58EDS/AKDI) of the same binder?
Its value is 0 % of wild type.

And the “HRV Binding %” value (ICAM-1 N48/H)?
The value was 81 % of wild type.

What about the “HRV Binding %” value (ICAM-1 N240DS/KNA) of the same binder?
The value was 82 % of wild type.

And the “HRV Binding %” value (ICAM-1 R13/Q)?
The value was 60 % of wild type.
